# Source: publication PMC2830067 (Journal of molecular biology, 2009)
# T1: Aquifex aeolicus GatCAB B-subunit (GatB) (Aquifex aeolicus, UniProt O66766 1-478)
# T1 sequence (looked up): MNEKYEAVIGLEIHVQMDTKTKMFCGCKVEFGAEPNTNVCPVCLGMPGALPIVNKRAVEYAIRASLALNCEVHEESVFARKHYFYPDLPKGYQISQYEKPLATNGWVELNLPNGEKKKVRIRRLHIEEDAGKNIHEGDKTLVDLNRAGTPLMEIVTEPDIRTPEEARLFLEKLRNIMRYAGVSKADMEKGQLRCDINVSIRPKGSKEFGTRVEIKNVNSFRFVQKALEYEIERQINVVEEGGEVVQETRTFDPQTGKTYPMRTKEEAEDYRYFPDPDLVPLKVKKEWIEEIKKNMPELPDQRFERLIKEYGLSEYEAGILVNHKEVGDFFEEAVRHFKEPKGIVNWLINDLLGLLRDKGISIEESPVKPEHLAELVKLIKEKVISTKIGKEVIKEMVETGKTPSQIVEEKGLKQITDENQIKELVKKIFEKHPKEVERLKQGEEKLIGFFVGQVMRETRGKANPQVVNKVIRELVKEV
# Biological target: T1, Aquifex aeolicus GatCAB B-subunit (GatB)
# Assay: crystal structure
row,binding result,Binder
1,binds,"Aquifex aeolicus GatCAB C-subunit (GatC) (natural protein, UniProt O67904 1-94, looked up) MVDREWVLKIAKLARLELKEEEIEVFQKQLSDILDFIDQLKELDTENVEPYIQEFEETPMREDEPHPSLDREKALMNAPERKDGFFVVPRVVEV"
2,binds,"Aquifex aeolicus GatCAB A-subunit (GatA) (enzyme, UniProt O66610 1-478, looked up, acyl-enzyme intermediate at Ser171 formed with Asn or Gln in the co-crystals) MLWKKSLSELRELLKRGEVSPKEVVESFYDRYNQTEEKVKAYITPLYGKALKQAESLKERELPLFGIPIAVKDNILVEGEKTTCASKILENFVAPYDATVIERLKKAGALIVGKTNLDEFAMGSSTEYSAFFPTKNPWDLERVPGGSSGGSAASVAVLSAPVSLGSDTGGSIRQPASFCGVIGIKPTYGRVSRYGLVAFASSLDQIGVFGRRTEDVALVLEVISGWDEKDSTSAKVPVPEWSEEVKKEVKGLKIGLPKEFFEYELQPQVKEAFENFIKELEKEGFEIKEVSLPHVKYSIPTYYIIAPSEASSNLARYDGVRYGYRAKEYKDIFEMYARTRDEGFGPEVKRRIMLGTFALSAGYYDAYYLKAQKVRRLITNDFLKAFEEVDVIASPTTPTLPFKFGERLENPIEMYLSDILTVPANLAGLPAISIPIAWKDGLPVGGQLIGKHWDETTLLQISYLWEQKFKHYEKIPLT"
